In publication PMC7744049:

Molecular target: SARS-CoV RBD (residues 306-527 of the spike protein) (SARS-CoV) (UniProt P59594)

Substance CR3022 IgG (antibody) has a pseudovirus neutralization assay (SARS-CoV spike on pseudovirus), IC50 of 5.2 µg/mL.
